According to patent US20240382588A1 (published 2024):

Key:
Assay in all cases: multimer staining
[1] = biological target: T1, SmD1 (Smith protein) peptide on HLA-DRA*01:01 / HLA-DRB1*03:01 (human)
T1 peptide: TLLVDVEPKVKSKKR

[2] = biological target: T2, Ro60 peptide on HLA-DRA*01:01 / HLA-DRB1*03:01 (human)
T2 peptide: KRFLLAVDVSASMNQ

[3] = biological target: T3, MPO (myeloperoxidase) peptide on HLA-DRA*01:01 / HLA-DRB1*04:05 (human)
T3 peptide: MVQIITYRDYLPLVL

Measured: binding result

B1: Promiscuous self-TCR (TCR, V domains shown)
Valpha: RKEVEQDPGPFNVPEGATVAFNCTYSNSASQSFFWYRQDCRKEPKLLMSVYSSGNEDGRFTAQLNRASQYISLLIRDSKLSDSATYLCVVPPGGGFKTIFGAGTRLFVKA
Vbeta: EAQVTQNPRYLITVTGKKLTVTCSQNMNHEYMSWYRQDPGLGLRQIYYSMNVEVTDKGDVPEGYKVSRKEKRNFPLILESPSPNQTSLYFCASRTRTASYGYTFGSGTRLTVV
recognises: all assays above
